# Results taken from patent US20230129084A1, “COMPOSITE IMPLANTS” (Re-Vana Therapeutics Ltd., priority 2015, published 2023).
# Tests used:
# [1] = In vitro drug release from preformed photocrosslinked implants (PPcI) in PBS; type: physicochemical; conditions: PPcI 30% w/w PLGA 75/25 / PEGDA 700, 5 runs, lamp intensity 100%, after 266 days
# Experimental: (§1) For drug release studies selected ISPcI gel formulation were injected (approx. 0.2 g or 0.1 g) into desired amount of PBS (pH 7.3±0.2). Sink conditions were maintained for each drug type. ISPcI were formed by exposing them immediately to 365 nm using bench-top UV light (at 3.1±0.1 mW/cm^2, CAMAG, Muttenz, Switzerland) for varying periods of time in PBS. The implants were stored in an incubator (37° C. and 60 rpm) for the duration of the release study. At predetermined time intervals the entire PBS medium was removed and replaced with equal amount of fresh PBS. All the experiments were carried out in triplicates. The concentration of released drug molecule in the PBS samples was analyzed as described below.
# Analysis of DEX and TA samples were carried out using reversed-phase HPLC with UV detection (Agilent 1260 Infinity Quaternary System) using an Agilent Zorbax Eclipse Plus 250 mm C18 column (250 mm length, 4.6 mm internal diameter and 5 μm particle size) and an Agilent Zorbax guard column held at 25° C. […] Analysis required a mobile phase of 60% water and 40% acetonitrile with UV absorbance at 270 nm (for DEX) and 236 nm (for TA) at a flow rate of 1 ml/min and 0.8 ml/min respectively. Analysis of FITC-Dextran 150 kDa release was conducted using a fluorescence spectrophotometer. […] Fluorescence excitation occurred at 480 nm with emission measured at 520 nm. […]
# [2] = In vitro drug release from in situ photocrosslinked implants (ISPcI) in PBS
# Experimental: as §1
# BSA, OVA and bevacizumab (Avastin) were assayed using a Pierce™ Micro BCA protein assay kit (Thermo Scientific, Hampton, UK). To a microwell, 150 μL of BSA, OVA or BVZ standard or release sample was pipetted and 150 μL of working reagent was added. A plate shaker ensured thorough mixing. The 96-well plate was covered and incubated for 2 hours at 37° C. Once the plate was allowed to return to room temperature, a UV plate reader measured the absorbance at 562 nm. The average absorbance reading of the blank was subtracted from those of the standards/samples.
# rat eye = assay: In vivo implant formation of ISPcI in rat eye following intravitreal injection; conditions: day 1, day 6 and day 18
# Experimental: 2 μl of ISPcI gel formulation was injected by intravitreal route in the rat eye, following by UV light exposure for 2 min, fundus images were collected to locate the implant formation and image model dye release within the eye. Likewise PPcI were administered by subconjunctival route and any surface inflammation monitored by experienced ophthalmologist
# [3] = ELISA test for bioactivity of OVA released from ISPcI; conditions: released from ISPcI at 37±2° C., after 1 and 3 months
# Experimental: (Agilent Technologies UK Ltd, Stockport, UK). […] A plate shaker ensured thorough mixing.
# Due to slow degradation rate of the crosslinked ISPcIs, the drastic drop in local pH is further delayed (unlike PLGA only implants) which is especially important and an advantage in protecting the sensitive molecules such as peptides and proteins. […] For example, an ELISA test was conducted to determine the bioactivity of released OVA from the ISPcI, at 37±2° C., after 1 and 3 months, respectively.
molecule,measurement,setting,value
Fluorescein isothiocyanate-dextran [FITC-Dextran 150 kDa],% release,[1],~27%
Bevacizumab [BVZ],BVZ released,[2]; 30% PLGA ISPcI implants UV crosslinked for 30 sec,~100%
same,BVZ released,[2]; 30% PLGA ISPcI implants UV crosslinked for 2.5 min,approximately 41%
O=C1OC2(c3ccc(O)cc3Oc3cc(O)ccc32)c2ccccc21 [fluorescein sodium],release of fluorescein sodium from ISPcI implant in the eye (fundus images),rat eye,slow and continuous release
"ovalbumin (protein, UniProt P01012 2-386, looked up, model protein molecule, Mw of 45 kDa) Ovalbumin: GSIGAASMEFCFDVFKELKVHHANENIFYCPIAIMSALAMVYLGAKDSTRTQINKVVRFDKLPGFGDSIEAQCGTSVNVHSSLRDILNQITKPNDVYSFSLASRLYAEERYPILPEYLQCVKELYRGGLEPINFQTAADQARELINSWVESQTNGIIRNVLQPSSVDSQTAMVLVNAIVFKGLWEKAFKDEDTQAMPFRVTEQESKPVQMMYQIGLFRVASMASEKMKILELPFASGTMSMLVLLPDEVSGLEQLESIINFEKLTEWTSSNVMEERKIKVYLPRMKMEEKYNLTSVLMAMGITDVFSSSANLSGISSAESLKISQAVHAAHAEINEAGREVVGSAEAGVDAASVSEEFRADHPFLFCIKHIATNAVLFFGRCVSP",OVA remained active (bioactivity of released OVA by ELISA),[3],~97±2%
